# Assay type: biochemical
# Conditions: pH 7.2
# Outline: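 % degradation measured against empty-vector control by UPLC-HR-MS, with product identity confirmed by exact mass and MS-MS. Conditions: 25 mM sodium phosphate pH 7.2, 30 °C, substrates at 1–10 nM. Enzyme source: TriA-expressing E. coli resting cells incubated with azines, melamine or atrazine.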
Molecule,"Degradation in % of 6-cyclopentyl-N4-(2,3,4,5,6-pentafluorophenyl)-1,3,5-triazine-2,4-diamine [%]",Degradation in % of Melamine [%]
"D128V: mutated TriA variant of SEQ ID NO: 2 (protein, Pseudomonas) MQTLSIQHGTLVTMDQYRRVLGDSWVHVQDGRIVALGVHAESVPPPADRVIDARGKVVLPGFINAHTHVNQILLRGGPSHGRQLYDWLFNVLYPGQKAMRPEDVAVAVRLYCAEAVRSGITTINDNAVSAIYPGNIEAAMAVYGEVGVRVVYARMFFDRMDGRIQGYVDALKARSPQVELCSIMEETAVAKDRITALSDQYHGTAGGRISVWPAPAITPAVTVEGMRWAQAFARDRAVMWTLHMAESDHDERLHWMSPAEYMECYGLLDERLQVAHCVYFDRKDVRLLHRHNVKVASQVVSNAYLGSGVAPVPEMVERGMAVGIGTDDGNCNDSVNMIGDMKFMAHIHRAVHRDADVLTPEKILEMATIDGARSLGMDHEIGSIETGKRADLILLDLRHPQTTPHHHLAATIVFQAYGNEVDTVLIDGNVVMENRRLSFLPPERELAFLEEAQSRATAILQRANMVANPAWRSL",2,0
"N70VM155V: mutated TriA variant of SEQ ID NO: 2 (protein, Pseudomonas) MQTLSIQHGTLVTMDQYRRVLGDSWVHVQDGRIVALGVHAESVPPPADRVIDARGKVVLPGFINAHTHVVQILLRGGPSHGRQLYDWLFNVLYPGQKAMRPEDVAVAVRLYCAEAVRSGITTINDNADSAIYPGNIEAAMAVYGEVGVRVVYARVFFDRMDGRIQGYVDALKARSPQVELCSIMEETAVAKDRITALSDQYHGTAGGRISVWPAPAITPAVTVEGMRWAQAFARDRAVMWTLHMAESDHDERLHWMSPAEYMECYGLLDERLQVAHCVYFDRKDVRLLHRHNVKVASQVVSNAYLGSGVAPVPEMVERGMAVGIGTDDGNCNDSVNMIGDMKFMAHIHRAVHRDADVLTPEKILEMATIDGARSLGMDHEIGSIETGKRADLILLDLRHPQTTPHHHLAATIVFQAYGNEVDTVLIDGNVVMENRRLSFLPPERELAFLEEAQSRATAILQRANMVANPAWRSL",0,0
"N70VD128SM155V: mutated TriA variant of SEQ ID NO: 2 (protein, Pseudomonas) MQTLSIQHGTLVTMDQYRRVLGDSWVHVQDGRIVALGVHAESVPPPADRVIDARGKVVLPGFINAHTHVVQILLRGGPSHGRQLYDWLFNVLYPGQKAMRPEDVAVAVRLYCAEAVRSGITTINDNASSAIYPGNIEAAMAVYGEVGVRVVYARVFFDRMDGRIQGYVDALKARSPQVELCSIMEETAVAKDRITALSDQYHGTAGGRISVWPAPAITPAVTVEGMRWAQAFARDRAVMWTLHMAESDHDERLHWMSPAEYMECYGLLDERLQVAHCVYFDRKDVRLLHRHNVKVASQVVSNAYLGSGVAPVPEMVERGMAVGIGTDDGNCNDSVNMIGDMKFMAHIHRAVHRDADVLTPEKILEMATIDGARSLGMDHEIGSIETGKRADLILLDLRHPQTTPHHHLAATIVFQAYGNEVDTVLIDGNVVMENRRLSFLPPERELAFLEEAQSRATAILQRANMVANPAWRSL",0,0
"N70VD128TM155V: mutated TriA variant of SEQ ID NO: 2 (protein, Pseudomonas) MQTLSIQHGTLVTMDQYRRVLGDSWVHVQDGRIVALGVHAESVPPPADRVIDARGKVVLPGFINAHTHVVQILLRGGPSHGRQLYDWLFNVLYPGQKAMRPEDVAVAVRLYCAEAVRSGITTINDNATSAIYPGNIEAAMAVYGEVGVRVVYARVFFDRMDGRIQGYVDALKARSPQVELCSIMEETAVAKDRITALSDQYHGTAGGRISVWPAPAITPAVTVEGMRWAQAFARDRAVMWTLHMAESDHDERLHWMSPAEYMECYGLLDERLQVAHCVYFDRKDVRLLHRHNVKVASQVVSNAYLGSGVAPVPEMVERGMAVGIGTDDGNCNDSVNMIGDMKFMAHIHRAVHRDADVLTPEKILEMATIDGARSLGMDHEIGSIETGKRADLILLDLRHPQTTPHHHLAATIVFQAYGNEVDTVLIDGNVVMENRRLSFLPPERELAFLEEAQSRATAILQRANMVANPAWRSL",1,4
"F157T: mutated TriA variant of SEQ ID NO: 2 (protein, Pseudomonas) MQTLSIQHGTLVTMDQYRRVLGDSWVHVQDGRIVALGVHAESVPPPADRVIDARGKVVLPGFINAHTHVNQILLRGGPSHGRQLYDWLFNVLYPGQKAMRPEDVAVAVRLYCAEAVRSGITTINDNADSAIYPGNIEAAMAVYGEVGVRVVYARMFTDRMDGRIQGYVDALKARSPQVELCSIMEETAVAKDRITALSDQYHGTAGGRISVWPAPAITPAVTVEGMRWAQAFARDRAVMWTLHMAESDHDERLHWMSPAEYMECYGLLDERLQVAHCVYFDRKDVRLLHRHNVKVASQVVSNAYLGSGVAPVPEMVERGMAVGIGTDDGNCNDSVNMIGDMKFMAHIHRAVHRDADVLTPEKILEMATIDGARSLGMDHEIGSIETGKRADLILLDLRHPQTTPHHHLAATIVFQAYGNEVDTVLIDGNVVMENRRLSFLPPERELAFLEEAQSRATAILQRANMVANPAWRSL",0,60
"N70LQ71LF157A: mutated TriA variant of SEQ ID NO: 2 (protein, Pseudomonas) MQTLSIQHGTLVTMDQYRRVLGDSWVHVQDGRIVALGVHAESVPPPADRVIDARGKVVLPGFINAHTHVLLILLRGGPSHGRQLYDWLFNVLYPGQKAMRPEDVAVAVRLYCAEAVRSGITTINDNADSAIYPGNIEAAMAVYGEVGVRVVYARMFADRMDGRIQGYVDALKARSPQVELCSIMEETAVAKDRITALSDQYHGTAGGRISVWPAPAITPAVTVEGMRWAQAFARDRAVMWTLHMAESDHDERLHWMSPAEYMECYGLLDERLQVAHCVYFDRKDVRLLHRHNVKVASQVVSNAYLGSGVAPVPEMVERGMAVGIGTDDGNCNDSVNMIGDMKFMAHIHRAVHRDADVLTPEKILEMATIDGARSLGMDHEIGSIETGKRADLILLDLRHPQTTPHHHLAATIVFQAYGNEVDTVLIDGNVVMENRRLSFLPPERELAFLEEAQSRATAILQRANMVANPAWRSL",0,2
"N70IQ71IF157A: mutated TriA variant of SEQ ID NO: 2 (protein, Pseudomonas) MQTLSIQHGTLVTMDQYRRVLGDSWVHVQDGRIVALGVHAESVPPPADRVIDARGKVVLPGFINAHTHVIIILLRGGPSHGRQLYDWLFNVLYPGQKAMRPEDVAVAVRLYCAEAVRSGITTINDNADSAIYPGNIEAAMAVYGEVGVRVVYARMFADRMDGRIQGYVDALKARSPQVELCSIMEETAVAKDRITALSDQYHGTAGGRISVWPAPAITPAVTVEGMRWAQAFARDRAVMWTLHMAESDHDERLHWMSPAEYMECYGLLDERLQVAHCVYFDRKDVRLLHRHNVKVASQVVSNAYLGSGVAPVPEMVERGMAVGIGTDDGNCNDSVNMIGDMKFMAHIHRAVHRDADVLTPEKILEMATIDGARSLGMDHEIGSIETGKRADLILLDLRHPQTTPHHHLAATIVFQAYGNEVDTVLIDGNVVMENRRLSFLPPERELAFLEEAQSRATAILQRANMVANPAWRSL",3,0

# From patent publication US11499162B2, “Plants having increased tolerance to herbicides” (BASF SE, priority 2016, dated 2022)
